The target in assay [1] is T1, recombinant IL-3Rα ectodomain (Homo sapiens, UniProt P26951).
T1 construct: Immobilisation of recombinant IL-3Rα ectodomain (Sino Biologicals) was done until 761 RU; purchased Sino Biologicals
T1 sequence (P26951 19-305 limits assumed): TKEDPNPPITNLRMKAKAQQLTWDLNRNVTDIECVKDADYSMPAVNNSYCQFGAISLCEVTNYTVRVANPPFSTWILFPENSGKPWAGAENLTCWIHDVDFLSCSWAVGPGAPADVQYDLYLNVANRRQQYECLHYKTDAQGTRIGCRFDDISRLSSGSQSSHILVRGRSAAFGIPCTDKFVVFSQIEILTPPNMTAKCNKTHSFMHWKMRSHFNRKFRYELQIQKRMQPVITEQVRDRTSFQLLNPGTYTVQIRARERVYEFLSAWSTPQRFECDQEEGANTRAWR
Kind of assay: SPR (ProteOn) on recombinant IL-3Rα ectodomain. It counts as binding. As to the method: The affinities of CD123 specific Nanobodies were further investigated via Surface Plasmon Resonance (SPR) at ProteOn. Immobilisation of recombinant IL-3Rα ectodomain (Sino Biologicals) was done until 761 RU. The Nanobodies were applied at a highest concentration of 1 μM, followed by a three-fold titration, covering 5 further concentrations ranging from 1 μM to 4.1 nM. These were then applied in a single injection cycle, utilising the ProteOn's specific one-shot kinetics approach for kinetic analysis. Evaluation of the association/dissociation data was performed by fitting a 1:1 interaction model (Langmuir binding model). […] For CD123 Nanobodies the obtained KD values correlated well with the apparent affinities retrieved by cell binding EC50 values (see Table 3).

For assay [2], the system named is HEK293T-wt cells. Kind of assay: FACS binding to non-transfected HEK293T-wt cells (specificity). More on the design: species or system human. The note with it: data not shown. As to the method: Nanobody binding to membrane associated human IL-3Rα was analysed on HEK293T cells transfected with pcDNA3.1-IL3Rα (NM_002183.2) and non-transfected cells. Surface expression was confirmed by FACS using IL-3Rα specific antibodies (R&D MAB301 and BD Pharminogen 554528), followed by goat anti-mouse PE (Jackson Immuno Research 115-115-164). Briefly, serial dilutions of Nanobodies were allowed to associate for 30 minutes at 4° C. in FACS buffer (PBS 1×+10% FBS+0.05% azide). Following this, cells were washed by centrifugation and probed with 6.7 nM anti-FLAG for 30 minutes at 4° C., to detect bound Nanobody. Detection was done with […] for 30 minutes at 4° C. Cells were washed and incubated with TOPRO3 to stain for dead cells, which are then removed during the gating procedure. The cells were then analysed via a BD FACSArray. The results are depicted in FIG. 1.2.

Assay [3] concerns the target T2, human IL12Rβ1 extracellular domain Fc-fusion (Homo sapiens, UniProt P42701).
T2 construct: Fc-fusions of human IL12Rβ1, IL12Rβ2 and IL-23R extracellular domains; purchased R&D Systems #839-B1
Kind of assay: SPR (Biacore T100) on IL12Rβ1-Fc. It counts as binding. As to the method: (§1) The precise binding affinities of the purified Nanobodies were determined in a multi-cycle kinetic analysis using Surface Plasmon Resonance analysis (Biacore T100) on Fc-fusions of human IL12Rβ1, IL12Rβ2 and IL-23R extracellular domains (R&D Systems, #839-B1, #1959-B2, #1400-IR). Sensorchips CM5 were immobilized with anti-hIgG antibody (GE Healthcare, BR-1008-39), after which receptors were captured at 5 μg/ml protein and contact time of 120 seconds. Running buffer used was HBS-EP+ (GE Healthcare, BR-1006-69) at 25° C., with a flow-rate of […]. For immobilization by amine coupling, EDC/NHS was used for activation and ethanolamine HCl for deactivation (Biacore, amine coupling kit). Nanobodies were evaluated at a concentration range between 1.37 nM and 3 μM. Nanobodies were allowed to associate for 2 min and to dissociate for 15 min at a flow rate of […]. In between injections, the surfaces were regenerated with a 3 min pulse of 3M MgCl2 and 2 min stabilization period. Evaluation of the association/dissociation data was performed by fitting a 1:1 interaction model (Langmuir binding model) by Biacore TWO software v2.0.3.
(In general: In SPR one partner is held on a chip, and binding of the other changes the refractive index at the surface.)

For assay [4], the system named is cytotoxic CD8+ T cells. Kind of assay: Binding to isolated CD8+ T cells (FACS). On the set-up: species or system human. The note with it: Nanobodies at 250 nM. As to the method:
The pool of activated T cells comprises both CD4+ T cells and CD8+ T cells. To confirm the specificity of the anti-CD4 Nanobody and to exclude binding to CD4-negative cells, binding was assessed to cytotoxic CD8+ T cells isolated from human PBMCs using the CD8+ T Cell Isolation Kit (Miltenyi Biotech, 130-096-495), resulting in 94% purity of CD8+ cells. Binding specificity experiments were carried out using Nanobodies at 250 nM. […] Similar data were obtained for the IL12Rβ2 and IL23R Nanobodies.

For assay [5], the system named is CD8+/CD4− gated and CD4+ gated T cells. Kind of assay: Multi-colour FACS on TH1 activated T cells gated for CD8 or CD4. It counts as binding, human. The settings on record: donor D838; anti-flag-APC detection. As to the method:
To elucidate if CD4-IL12R bispecific polypeptides preferentially bind to the CD4+/IL12R+ TH1 cell subset within the pool of T cells, Nanobody binding was analysed to a pool of activated T cells gated for either CD8 (detected by Anti-hu CD8 PE-Cy7 conjugated monoclonal antibody (BD 557746) or CD4 (detected by Anti-hu CD4 alexa Fluor 488-conjugated polyclonal antibody (R&D FAB8165G) in a multi-colour FACS experiment. Nanobody binding to the CD8+/CD4− gated cells and to CD4+ gated cells was determined using anti-flag-APC (Prozyme PJ255) detection. In this experiment TH1 activated T cells from the same donor (D838) as shown in FIG. 3.6 were used.

Assay [6] has as its target T3, human IL12Rβ2 extracellular domain Fc-fusion (Homo sapiens, UniProt Q99665).
T3 construct: Fc-fusions of human IL12Rβ1, IL12Rβ2 and IL-23R extracellular domains; purchased R&D Systems #1959-B2
T3 sequence (Q99665 24-622 limits assumed): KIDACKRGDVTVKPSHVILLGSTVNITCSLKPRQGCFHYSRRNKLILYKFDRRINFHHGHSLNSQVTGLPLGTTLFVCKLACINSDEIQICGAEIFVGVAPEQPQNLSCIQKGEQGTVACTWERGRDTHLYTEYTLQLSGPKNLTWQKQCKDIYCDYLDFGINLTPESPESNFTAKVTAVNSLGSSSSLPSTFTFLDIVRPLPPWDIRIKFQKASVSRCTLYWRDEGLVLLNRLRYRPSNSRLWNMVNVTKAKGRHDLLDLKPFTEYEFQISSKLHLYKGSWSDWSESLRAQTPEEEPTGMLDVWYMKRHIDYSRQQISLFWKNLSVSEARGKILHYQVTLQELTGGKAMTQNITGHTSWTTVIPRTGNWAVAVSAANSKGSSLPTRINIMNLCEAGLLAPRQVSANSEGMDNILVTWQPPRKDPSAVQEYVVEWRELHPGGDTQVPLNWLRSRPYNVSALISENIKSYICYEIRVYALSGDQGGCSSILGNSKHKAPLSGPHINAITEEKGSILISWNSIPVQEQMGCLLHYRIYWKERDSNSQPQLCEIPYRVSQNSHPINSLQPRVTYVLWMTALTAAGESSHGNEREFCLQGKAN
Kind of assay: SPR (Biacore T100) on IL12Rβ2-Fc. It counts as binding. As to the method: as §1

The text below walks through data of US20220242958A1, “BISPECIFIC NANOBODIES” (Ablynx N.V., priority 2013, published 2022).

B1: CD123#2: anti-IL-3Ra (CD123) Nanobody, SEQ ID NO: 14 (protein)
VHH: EVQLVESGGGSVQAGGSLRLSCTTSGRALNMYVMGWFRQAPGNEREFVAATSSSGGSTSYPDSVKGRFTISRDNAKNTVYLQMNSLKPEDTAAYRCAASPYVSTPTMNILEEYRYWGLGTQVTVSS
B1: in assay [1], the “SPR - IL-3Ra ka” value came to 84000 M⁻¹ s⁻¹ and the “SPR - IL-3Ra kd” value turned out to be 0.0014 s⁻¹. Besides, the “binding to HEK293T-wt cells” value in assay [2] is listed as “lack of binding”.

B2: IL12Rb1#30: IL-12Rβ1 specific ligand competing Nanobody (protein)
VHH: EVQLVESGGGLVQTGGSLRLSCAASGRTPRLVAMGWFRQTPGKEREFVGEIILSKGFTYYADSVKGRFTISRVNAKNTITMYLQMNSLKSEDTAVYYCAGRQNWSGSPARTNEYEYWGQGTLVTVSS
Turning to B2, in assay [3], the “Binding kinetics (SPR) ka (1/Ms), IL12Rβ1” value came to 450000 M⁻¹ s⁻¹ and the “Binding kinetics (SPR) kd (1/s), IL12Rβ1” value stood at 0.0015 s⁻¹. Also, the “binding to isolated CD8+ T cells” value in assay [4] is recorded as “did bind”. Moreover, in assay [5], the “binding to CD4+ gated and CD8+ gated T cells” value is “low fluorescence signals to both CD4+ and CD8+ cells”.

B3: IL12Rb2#1: IL-12Rβ2 specific ligand competing Nanobody (protein)
VHH: EVQLVESGGRLVQAGDSLRLSCAASGRTFISYRMGWFRQAPGKEREFVAALRWSSSNIDYTYYADSVKGRFSISGDYAKNTVYLQMNSLKAEDTAVYYCAASTRWGVMESDTEYTSWGQGTLVTVSS
Consider B3, for which, in assay [6], the “Binding kinetics (SPR) ka (1/Ms), IL12Rβ2” value amounted to 210000 M⁻¹ s⁻¹ and the “Binding kinetics (SPR) kd (1/s), IL12Rβ2” value came to 0.00057 s⁻¹. In assay [5], the “binding to CD4+ gated and CD8+ gated T cells” value is “low fluorescence signals to both CD4+ and CD8+ cells”.

B4: CD123#1: anti-IL-3Ra (CD123) Nanobody, SEQ ID NO: 15 (protein)
VHH: EVQLVESGGGLVQAGGSLRLSCAASGSIFSGNVMGWYRRQAPGKEREWVAAIASGGSIYYRDSVKGRFTISRDNAKNTVYLQMNSLKPEDTAVYYCNSHPPTLPYWGLGTQVTVSS
B4: in assay [1], the “SPR - IL-3Ra ka” value was found to be 1e+06 M⁻¹ s⁻¹ and the “SPR - IL-3Ra kd” value was 0.00081 s⁻¹. The “binding to HEK293T-wt cells” value in assay [2] is “lack of binding”.
